Biological target: human IL-17 receptor (IL-17R) on primary human bronchial epithelial (HBE) cells (human) (UniProt Q96F46)
Test: cell-based or functional assay

| inhibition of DEFB104 mRNA upregulation by 100 ng/ml IL-17A in HBE cells after preincubation with 2 ug/ml anti-IL-17R antibody [%] | inhibition of DEFB104 mRNA upregulation by 100 ng/ml IL-17F in HBE cells after preincubation with 2 ug/ml anti-IL-17R antibody [%] | Substance |
| --- | --- | --- |
| 62.5 |  | IL-17A (R&D Systems) (from UniProt Q16552 20-155) (ligand) |
|  | 77.6 | human IL-17F (R&D Systems) (from UniProt Q96PD4 31-163) (ligand) |
